From US20200181605A1 (SHANGHAI INSTITUTES FOR BIOLOGICAL SCIENCES CHINESE ACADEMY …, published 2020) come the findings set out here.

This test concerns the target T1, endogenous Brd4 protein of untargeted androgenetic haploid embryonic stem cells (NC) (mouse, UniProt Q9ESU6 1-1400, limits assumed).
T1 construct: Endogenous, untagged; a mixture of the large and small isoforms in the cell lysate; also called Brd4 large protein (about 250 kDa); Brd4 small protein (110/120 kDa)
The test can be described thus: Co-IP with Brd4 antibody-coupled beads, western blot. For orientation: Immunoblotting shows a protein as a band on a membrane.

B1: CDK9 (enzyme, UniProt Q99J95 1-372, looked up)
chain: MAKQYDSVECPFCDEVTKYEKLAKIGQGTFGEVFKAKHRQTGQKVALKKVLMENEKEGFPITALREIKILQLLKHENVVNLIEICRTKASPYNRCKGSIYLVFDFCEHDLAGLLSNVLVKFTLSEIKRVMQMLLNGLYYIHRNKILHRDMKAANVLITRDGVLKLADFGLARAFSLAKNSQPNRYTNRVVTLWYRPPELLLGERDYGPPIDLWGAGCIMAEMWTRSPIMQGNTEQHQLALISQLCGSITPEVWPNVDKYELFEKLELVKGQKRKVKDRLKAYVRDPYALDLIDKLLVLDPAQRIDSDDALNHDFFWSDPMPSDLKGMLSTHLTSMFEYLAPPRRKGSQITQQSTNQSRNPATTNQTEFERVF
notes: Endogenous protein co-precipitated from mouse ES cell lysate
On to B1, for which the binding result is recorded as “binds”.
